According to the DeepSol protein solubility set:

Assay: soluble on expression in E. coli; label from the status in PepcDB or PDB records

Soluble on expression in E. coli, not soluble:
MGSDKIHHHHHHMPKNWTLKVDQYINANSNCIIATAHVDSFPTDLPLEPNIREPNLKSSTYKQIFDSLTTEPEKFFQRNNGIVLCVNKVKPKNRTELELEILQANEGGNDGVINGGHSVSAFEQARKFKYDLTLARVKVTIHIGLSEDEAKDIALASNTSAPVDARSKVNARGDYQFIKQFLAQLEREEDTKFRIAYYQNQSGAPKSPQCNVNHLIKLMNCLDRNKYNPNTNKSKGKHPPVSNNPSLTDAERERLSRLLPLLPKALWIEQRFFKTIEAYITNPKKKGVDLASIDARKNTLLPDSRYSFGFSAPADIAMPIVAAYRVFLDENYNWLIPFDDFAEDFLQHLWNNYYRKYLVSEKFSGNTVGSKICRNPVIWDSLYVSAQSYLNQQLLKMVSSSKNKREELKLAN
MGSDKIHHHHHHMPLDLDTALSSHQPLSLNERKLLDILRRRGAITRATVSAEMDLAQQSVHRLIEELISRGLLRSGERVKNGRGQPSPRIELVNEAVYAIGVSINTDSAVVCVADLGCNVLEQVTLRTPPLSRNSTLDSLAKTIERMLQRNGIETDRVIGMGFAIAGFFLENRQINAPEPLRDWSLIDLQPVLEERFGMPVWLENNATTAAIGESLVGVGAWASNFIYLSFNFGFGAGVVINGKPYFGSHGNAGEITLYNDEESINRPALRYLLEELHQKGVQVDSIEDLRLRFDPNWPGVDTWLKRIQPTLDRLVNALAGLFDPQAVVFGGQLPAELGKRLIAATTFWGTHRYNSPPPRPRLLLSETNGDAAAIGAALVPLKERFFV
MGSDKIHHHHHHMPNIDTFVPEKIQIGISSCLLGNQVRFDGGHKNSYYCRQEIEPFFEYTTVCPEMAIGMGTPRKSIRQIRDGDVVHIRSADGTLDVTDKLNEYSQAKVEELDYLGGYILCAKSPTCGMERVTEYKIGTNNGSKTGVGVFAKKLMERYPLLPVEEEGRLHDLPLRENFFTRVFAYNDWKQMTQSGLTKHKLMQFHSRYKYLLMAHSPKWYRDLGPILADIQDVEQTAQQYFEGFMTALKIIATRKNHTSTLQHIQGYFKKQLTAEQKEELSESILKYRQGLLPLLVPITLINHYVREFHTPYIQDQVYLNPHPEALKLRYAY
MGSDKIHHHHHHMPNIIIIERDINYLKIFIKCMKESGFEVVCMNNTKLVSQVAQKQLPDLIICSLEIAKQNNCNFWNNLCQNFVTATIPLIFLINEASEIYQCPEFAADGYITKFCTTEELNKAIKAQLAKQAARKHGYAIQSQQVLNSPSIGNDQPNVQSILPSIPRLNLVFEFIAANYDKPISLCDVAEALGYSATYLTTVVTQTTGKSLQKWIIECRITAAQILLLQTDQSVNQIALKVGYENLAHFYRQFRDYHGTSPQVWREVEKSHNSHQLNKDKASLNSNNFGDFQ
MGSDKIHHHHHHMPNKDIDDLVRFLKDKQISTITKKYHSYLTFHGLKAANVFILKEGIIKTSVILQDGREFNISYINQPDVISLLHDEALQYDEQPFNVRIESETATFYQVNRVEFWQYVNAKSELQNYVKQYYRHRLSETFARIQRLTMNGKMGALANFLHDIAEKFGRDLPDEAGVLIDFNVTNEDIAGFCGIANQTSVSRMMRKLKLEDIIDFGMSNDGKRRIIITNMKKLDDYIAY
MGSDKIHHHHHHMPPLDLTHIRQHHTVAELIALGKARRQVTPFEKLGTFTPVKRNASDYLKHVREMLVPELLPLRRERMSASAFAFFRGSVELMDYDLDYQSSTEIPAVVCGDAHIGNFGFYASPERRLVFDLNDFDEAGVHPWEWDLRRLLVSVLLAARDSNFKPKKVEKLIQAASASYREALKRMFDQTTLDRFYRDNEVQAVLNFGGAPEDTADLIASLVKKAQKRNSEQVVRKFTVTNSRGERQFKENAPRSVHIDRQTYQGLKAGISEYLLNVRTDVALLLSQYEVTDIIRHSVGVGSFGSLCYLVLLTSTDGSHMVLQIKEALPTRKVGSQSRPALTAAMELTEGQRIVSSQRILQATSDAFLGYFQMENKSFYVRQFRDMKESIDIPTLDWGQFQAYANTCAMILAKAHAQSPTAAMIRGYVGNSAKFDEAMAKWATAYVEQVDNDYQDFLDV
MGSDKIHHHHHHMPPLPVLNRPQIHTSVTEISHAIDRTIKEELFPVAYTTEEEQYFKTNPKPAYIDELIKDAKEFIDLQYSLKRNKIVLITSGGTTVPLENNTVRFIDNFSAGTRGASSAEQFLANGYSVIFLHREFSLTPYNRSFSHSINTLFLDYIDSEGKIKPEFAENVLKNKKLYDKYMEKEEKLLLLPFTTVNQYLWSLKSIAKLLNNSGCLFYLAAAVSDFFVPYSRLPQHKIQSGDNGKMGANNDTEGTTRTTPDGKLIVNLDPVPKFLRRLVESWATQAMIVSFKLETDESMLLYKCTQALDRYNHQLVIGNLLQTRNKQVIFVSPENRKGDWVRLDEKHHIIEEMIIPEVIARHDKWVAHSKTKLATK
MGSDKIHHHHHHMPPRKKAAIASTGIAGLDEILRGGLPLPNLFMLQGAPGSGKTTAAIQFLRAGVEAGESCLYVTLSQSAAELRSIAVSHGWTLDGIHVEELSTTGSIDEADEQSIFMTADLRLDETRKAIEAAIDEHKPQRLVYDSLLEIRLITGDSPRFRRELIGFKSFLSKRKVVALLLDTQSPGLDRSGEEVEGLAHGVIRFDKSLEEYGGVRRRIEVSKMRGVPIADGYHDMAIREGAGVVVFPRIMPSTATEATKPQLIKSGVSELDDMFGGGQEAGTTTLVIGQAGTGKSTMSSLYATAALERGESVALFLFEERLETFFRRSEGLGMQLRQFHKDGKLILRDFNPNEVSPGEFGQIVQDAVVQNKVRVVVIDSLTGYLNSLPHREKAVRDIQSLLKYLARSGVLTMLIVAQHGLLGQNVGIDVDVSFLGDTVLLLRIMEHEGRLRRSITVVKKRHGPHDLDVRELLIESGSVSVVSYNPLPDPK
MGSDKIHHHHHHMPQIGYQWLSSKCGVVPVHPFAVQSEIGRARSTSTDGDIRREIYPEPYRPTASLTDNLTFAFRHEGIHLEFLARLYALPSVRKELEAWIAREPTGAYARRACFFYEWLMPAPLDAPGVSKGNYVDALNPEEFVVGASINNTRWRVRDNLPGNRDFCPVIRRVEAVQRAETYDLAAPLAELEADYGIDLILRSAVWLTVKESRASFLIEHEQDNEDRIRRFAAVMESECGQHANPFDAGTLNVLQRGILGQSALRYGIRRSPVYVGHVARYQPVVDYIAPPWQHIEVMLAGLTRFLERTAGRAPLVRAAAASFGFVYAHPMADGNGRISRFLINDILRRDGAVPAPIILPVSATITHSTRDRAAYDKVLERFSRPLMKHYADQYTFGKTEIAEDGVEYNLHFHAYEDALPAWRYPDLTAHVGYLADVIDATLAHEMRTEARFLQANDKARRAIKDFLEAPDNDLDGIIRSVRQNGNSISNNLRKRYPLLDERPELGAQIVEAVAEAFADDKSH
MGSDKIHHHHHHMPQRIDLRVRPEEATDEQILRKHVARQTKTDPTDIHTIIIRRRSIDARQRQVYVNLGLEVYSGSESPVEDDFSDLIYPSVEGKTAVIVVGAGPAGLFAALRLIELGLRPIILERGKSVHERRADIARIPKEGHVDPESNYGFGEGGAGAFSDGKLYTRSKKRGDITKILRILCKHGAQPSILIDAHPHIGTDRLPKVIENIRHQILAAGGEVHFSCRMESLIIHNGQVVGARDNKGREYCGPVILATGHSARDIYRYLHRNGIRMEAKGTAVGVRLEHPQALIDQLRYHNPKGRGLYLPPAEYTYTAQVEGRGVYSFCMCPGGFVVPASTAPDQTVVNGMSPANRGSRWANSGLVVEIHPEDVLSTPTNDPLALMNWIERLEGESWTQARCSLRAPAQRMTDFLSGRSSVDLPKSSYNMGLTPSRLDEWLPSFITKRIQKAFQLFDRQTKGFLTAEAQLIALESRTSSPVRILRESTSCEHPLLRGLFPCGEGAGYAGGIVSAAMDGERCAEGVASYLG
MGSDKIHHHHHHMPRHVSNLELHNQIQEAALQSHLVPLGSIQLTPHFIPVEGLRRSIQRALKNCQPQDFLYCNKQGHEQLRKALSDHWREDGIYIAPEDIFITNGCMPALSLVIQKLTEVGDSILIPTPTYNGHLQLLASLKRQIVEIPADHRGIDLERLESLMQQGLAKVCLMTANYQNPLGYCFSNAEKQKIAELAAEYQCFIIEDDIFGECGYSSERPLPIRYWDREGYVVWCGSVSKSLSSAYRVGWFCLTTKLEHLKLELLVSNIGVNTPLQLGLADFIYSRGYREHLEQLRPNLMRQVEEYRSCILRAFEGIPIALSQPEGGYALWIQLPKSVDSLALYYTAQAQGITVVPGYVFGEDERYRHFIRLNAGHELTADVRQAIMSLADWSRQQMQTVS
MGSDKIHHHHHHMPRPAPRVTNSPMNTSPTWGVVATVKAPEHEILRFAAWHLELGAHRLFLYLDDPDPAVFARLKAHPRIRVFACDDSYWQRRKLSRPVKHQARQTMNARHAYNRADVDWLAHIDVDEFIWSETPIAAVLSGLPDDTLCARMRPIEALAGGDALYKAFIPGGPARDGIVRRLYPTFGAFVKGGFMSHVAGKVFARTGMEKVDFRIHNIFRNKEMNPHQVELDMVDLCHRHGADWDHWIAAYRYRIAQGSYRPDLAPNVPREAGGLSMHELLSGIEEEQGEDGLRAFFDELNACAPEGRARLRAEGMLKHRPLDLDGAMQKQFPK
MGSDKIHHHHHHMPSIRVVNLKKYFGKVKAVDGVSFEVKDGEFVALLGPSGCGKTTTLLMLAGIYKPTSGEIYFDDVLVNDIPPKYREVGMVFQNYALYPHMTVFENIAFPLRARRISKDEVEKRVVEIARKLLIDNLLDRKPTQLSGGQQQRVALARALVKQPKVLLFDEPLSNLDANLRMIMRAEIKHLQQELGITSVYVTHDQAEAMTMASRIAVFNQGKLVQYGTPDEVYDSPKNMFVASFIGNPPTNFLRDFSVSVENKQTILKRDDVIIKLPEPVDVKLKEVVVGIRPEHCRISRERVENSIPGVVYVVEPLGRDIIVNVKTEKGEIIKVFGDTGKAPQPGENVFLVPDLRKIHLFNPETEETIL
MGSDKIHHHHHHMPTLDPLSLRLFVSVAEAGTIAAAAEREHIAAAAVSKRISEIEATLGVALLRRTNKGVAPTAAGERLVVLAHRALHELDDIAVQMRDYASGVSGLIRLAANVSSVVQFLPREIQAFAAQHPRIQIQLEEKASAGVVKAVADNAVDIGIFTSVPHGYEVQTFPYHRDFLTLVVPGGHTLAQKQAVAFADTLDFEYVGLPPDTAISQQLTRAAHAHARPVNLRIQVTSYDAQCLMIAAGLGLGVMPHAVAQQQAANLGLATVALTDAWAERELLIAVRSLEALPVACRMLVAHLRGA
MGSDKIHHHHHHMPTPRPWLYLGTTHALCEDCLALIPAKVVAEDGCVWHLKRCPAHGPQRTMISSDYAYWREARDFIKPGDLPAHFHTQVDKGCPHDCGLCPDHEQHSCLALVEVTDSCGLDCPTCFAQSRPGRGHRSLAEVEAMLDAVVRSEGGSPDIVQISGGEPADHPQILEILRAAKARPIRHVMLNTNGVRLARDPDFATALAGLGPGFEVYLQWDSLEPEALSVLRGADLREVRKGALAALDRHGISTTLVCVMAKGVNDGEVGAIIDHALAVACVRGVSFQPLQDAGRSPGLGKDSRMLPSDIRRAIIEQSNGLFGPADLVPLPCNPESITIAYALRHGNRATAVTGLVPRDLLLSAVPNALTFDAVPGLKDSLMRLLSMSCAGEDTAVQMGKLLCCLPGIQAPASLTYDKVFRLSIVQFLDRYSFCLGQVKRACVHVAQPDGKMIPIDTFNLFHRSNNHD
